The record followed here is US7329737 (DYAX, dated 2008).

In this assay the target is T1, hK1 (human tissue kallikrein 1), recombinant (human, UniProt P06870 25-262).
T1 construct: Expressed in P. pastoris from KLK1 cDNA and purified; enzymatically active; also called KLK1; Recombinant (Pichia) Kallikrein
Description: SPR. Background: SPR reads the build-up and loss of mass on a sensor chip optically.

B1: M0132-C01 (Fab, V domains shown)
VH: EVQLLESGGGLVQPGGSLRLSCAASGFTFSRYLMWWVRQAPGKGLEWVSVIGPSGGWTRYADSVKGRFTISRDNSKNTLYLQMNSLRAEDTAVYYCARHPGDYWGQGTLVTVSS
VL: AQSALTQPRSVSGSPGQSVTISCTGTGSNIDGYNYVSWYQQYPGNAPKLIIYDVGKRPSGVPNRFSGSKSGNTASLTISGLQAEDEADYYCCSYAGSYSYVFGVGTKVTVLG
Broadly, the Kd is the equilibrium constant for the complex coming apart. A word on the koff: it is a measure of how fast the partners let go of each other. The kon is the second-order rate constant of association. On to B1, for which the Kd worked out at 25.6 nM, the koff stood at 0.0035 s⁻¹ and the kon turned out to be 137000 M⁻¹ s⁻¹.

B2: M0128-F11 (Fab, V domains shown)
VH: EVQLLESGGGLVQPGGSLRLSCAASGFTFSFYVMGWVRQAPGKGLEWVSWIGPSGGRTWYADSVKGRFTISRDNSKNTLYLQMNSLRAEDTAVYYCARDRGWYGIDVWGQGTTVTVSS
VL: DIQMTQSPSSLSASVGDRVTITCRASQYISTYLAWYQQKPGKAPKLLIYKASDLESGVPSRFSGSGSGTEFTLTINSLQPDDFATYYCQQYNTYWTFGHGTKVEIKR
With B2, the Kd is 18.3 nM, the koff worked out at 0.0143 s⁻¹ and the kon was found to be 780000 M⁻¹ s⁻¹.

B3: M0123-E02 (Fab, V domains shown)
VH: EVQLLESGGGLVQPGGSLRLSCAASGFTFSHYRMDWVRQAPGKGLEWVSGIYPSGGHTNYADSVKGRFTISRDNSKNTLYLQMNSLRAEDTAVYYCARDRGWYGADYWGQGTLVTVSS
VL: AQSALTQPASVSGSPGQSITISCSGTSSDVGAYYHVSWYQQHPGKAPKLMIYDVSNRPSGVSNRFSGSKSGNTASLTISGLQAEDEADYYCSLYIGTSTPWVFGGGTKLTVLG
As to B3, the Kd is 26.8 nM, the koff was 0.00613 s⁻¹ and the kon stood at 229000 M⁻¹ s⁻¹.

B4: M0122-D01 (Fab, V domains shown)
VH: EVQLLESGGGLVQPGGSLRLSCAASGFTFSHYIMHWVRQAPGKGLEWVSGIYPSGGSTKYADSVKGRFTISRDNSKNTLYLQMNSLRAEDTAVYYCARALVGALDYWGQGTLVTVSS
VL: DIQMTQSPSSVSASVGDRVTITCRASQDIRTWLAWYQQKSGKAPKLLIYSSSSLQSGISSRFSGSGSGTDFTLTISNLQPEDSAIYYCQQATTFPWTFGQGTKVEIKR
As for B4, the Kd was found to be 20.8 nM, the koff was 0.00427 s⁻¹ and the kon worked out at 205000 M⁻¹ s⁻¹.

B5: M0106-E12 (Fab, V domains shown)
VH: EVQLLESGGGLVQPGGSLRLSCAASGFTFSHYNMTWVRQAPGKGLEWVSSIWPSGGATRYADSVKGRFTISRDNSKNTLYLQMNSLRAEDTAVYYCARTSRFYGMDVWGQGTTVTVSS
VL: DIQMTQSPGTLSLSPGERATLSCRPSQSVYSNYLAWYQQKPGQAPRLLIYGASTRATGIPDRFSGSASGTDFTLTISRLEPEDFAVYYCQQYGNSYTFGPGTKVDIKR
With B5, the Kd is 19.9 nM, the koff came to 2.44 s⁻¹ and the kon turned out to be 1.23e+08 M⁻¹ s⁻¹.

B6: M0106-C06 (Fab, V domains shown)
VH: EVQLLESGGGLVQPGGSLRLSCAASGFTFSHYTMQWVRQAPGKGLEWVSSIYPSGGATKYADSVKGRFTISRDNSKNTLYLQMNSLRAEDTAMYYCARSGYYYGLDVWGQGTTVTVSS
VL: DIQMTQSPATLSASVGDRVTITCRASQSVSRWLAWYQQKPGKAPKLLIYKASTLESGVPSRFSGSGSGTEFTLTISSLQPDDFATYYCQQYGAFGQGTKVEIRR
For the molecule B6, the Kd was 22.6 nM, the koff amounted to 0.0142 s⁻¹ and the kon was 628000 M⁻¹ s⁻¹.

B7: M0131-D12 (Fab, V domains shown)
VH: EVQLLESGGGLVQPGGSLRLSCAASGFTFSWYNMYWVRQAPGKGLEWVSYIVPSGGATHYADSVKGRFTISRDNSKNTLYLQMNSLRAEDTAVYYCARALRGYSYGPRGYYYYGMDVWGQGTTVTVSS
VL: AQSALTQPPSVSVAPGQTASISCSGNILDNSYASWFQQKPGQSPVMVIHRDNKRPSGIPERFSGSTSGNTATLTISGTQAVDEADYYCQAWDRTTGVFGTGTRLTVLR
On to B7, for which the Kd was found to be 18.4 nM, the koff is 0.00193 s⁻¹ and the kon was determined as 105000 M⁻¹ s⁻¹.

B8: M0102-G11 (Fab, V domains shown)
VH: EVQLLESGGGLVQPGGSLRLSCAASGFTFSRYMMEWVRQAPGKGLEWVSGISPSGGTTKYADSVKGRFTISRDNSKNTLYLQMNSLRAEDTAVYYCTRGGYNNYYYALDVWGQGTTVTVSS
VL: DIQMTQSPDTLSLSPGERATLSCRASESVSSSYFAWYQQKRGQAPRLLIYGASRRVTGIPDRFSGSGSGTDFTLTITRLEPEDFAVYYCQQYGGSPRSFGQGTKVEIKR
For the molecule B8, the Kd turned out to be 24.8 nM, the koff amounted to 0.0116 s⁻¹ and the kon came out at 467000 M⁻¹ s⁻¹.

B9: M0117-B07 (Fab, V domains shown)
VH: EVQLLESGGGLVQPGGSLRLSCAASGFTFSHYTMWWVRQAPGKGLEWVSRIWPSGGTTRYADSVKGRFTISRDNSKNTLYLQMNSLRAEDTAVYYCARGGSYLAFDIWGQGTMVTVSS
VL: DIQMTQSPATLSLSPGERATLSCRASQSVSSYLAWYQQKPGQAPRLLIYDASNRATGIPARFSGSGSGTDFTLTISSLEPEDFAVYYCQQRSNFGGGTKVEIKR
Regarding B9, the Kd worked out at 22.8 nM, the koff is 0.00826 s⁻¹ and the kon worked out at 362000 M⁻¹ s⁻¹.

B10: M0126-H09 (Fab, V domains shown)
VH: EVQLLESGGGLVQPGGSLRLSCAASGFTFSNYTMMWVRQAPGKGLEWVSGIYPSGGQTAYADSVKGRFTISRDNSKNTLYLQMNSLRAEDTAVYYCARGGSWYAFDIWGQGTMVTVSS
VL: AQSVLTQDPAVSVALGQTVRFTCQGDSLRNYHPSWYQQKPRQAPVLVMFGRNNRPSGIPDRFSGSTSGGTASLTITATQADDEADYFCSSRDGSGNFLFGGGTKLTVLG
For B10, the Kd stood at 23 nM, the koff amounted to 0.415 s⁻¹ and the kon amounted to 1.8e+07 M⁻¹ s⁻¹.

B11: M0114-E02 (Fab, V domains shown)
VH: EVQLLESGGGLVQPGGSLRLSCAASGFTFSHYKMMWVRQAPGKGLEWVSYIYPSGGWTGYADSVKGRFTISRDNSKNTLYLQMNSLRAEDTAVYYCARVGPWDAFDIWGQGTMVTVSS
VL: DIQMTQSPATLSLSPGERATLSCRASQSVGGYLAWYQQKPGQAPRLLIYDASKRATGIPARFSGSGSGTDFTLTISSLEPEDFAVYYCQQRSKWPPYTFGQGTKLEIKR
B11: the Kd was 23.2 nM, the koff is 0.00936 s⁻¹ and the kon worked out at 403000 M⁻¹ s⁻¹.

B12: M0137-G10 (Fab, V domains shown)
VH: EVQLLESGGGLVQPGGSLRLSCAASGFTFSRYVMHWVRQAPGKGLEWVSYISPSGGVTKYADSVKGRFTISRDNSKNTLYLQMNSLRAEDTAVYYCAKALYPGMGYYYGMDVWGQGTTVTVSS
VL: DIQMTQSPSSLSASVGDRVTITCRTSQTVSTFLNWYQQKPGTAPKLLIYAASRLQSGVPSRFSGSGSETDFTLTISRLQPEDFATYYCQQSFTSPRTFGLGTKVEIKR
As to B12, the Kd is 18.8 nM, the koff was determined as 0.00513 s⁻¹ and the kon worked out at 272000 M⁻¹ s⁻¹.

B13: M0093-C10 (Fab, V domains shown)
VH: EVQLLESGGGLVQPGGSLRLSCAASGFTFSRYTMEWVRQAPGKGLEWVSVIRPSGGTTMYADSVKGRFTISRDNSKNTLYLQMNSLRAEDMAVYYCARVGVWYGMDVWGQGTTVTVSS
VL: DIQITQSPSSLSASVGDRVTITCRASQGISNYLAWYQQKPGKVPKLLIYAASTLQSGVPSRFSGSGSGTDFTLTISSLQPEDFATYYCEQLNSFPHAFGQGTKVEIKR
Consider B13, for which the Kd was 22.6 nM, the koff turned out to be 0.00752 s⁻¹ and the kon stood at 333000 M⁻¹ s⁻¹.

B14: M0095-G09 (Fab, V domains shown)
VH: EVQLLESGGGLVQPGGSLRLSCAASGFTFSNYNMHWVRQAPGKGLEWVSVIYPSGGYTVYADSVKGRFTISRDNSKNTLYLQMNSLRAEDTAVYYCARRGNWGGIDYWGQGTLVTVSS
VL: DIQMTQSPSSLSASVGDRVTITCRASQSISNWLAWYQQKPGKAPKLLIYKASTLQTGVPSRFSGSGSGTEFSLTISSLQPDDFATYYCQQTYSAPFNFGPGTKVDIKR
For the molecule B14, the Kd was determined as 18.6 nM, the koff was determined as 0.0934 s⁻¹ and the kon amounted to 5.01e+06 M⁻¹ s⁻¹.

B15: M0128-A06 (Fab, V domains shown)
VH: EVQLLESGGGLVQPGGSLRLSCAASGFTFSHYKMNWVRQAPGKGLEWVSYIGSSGGKTGYADSVKGRFTISRDNSKNTLYLQMNSLRAEDTALYYCARVGVWYGMDVWGQGTLVTVSS
VL: AQSALTQPPSLSVSAGQTATITCSPSGGGLRNKYVSWYQQRPGQSPFLVIYKDAERPSGIPERFSGSNFGNTATLTIGGTQAMDEADFYCLAWDSTTRVFGGGTKLTVLS
B15: the Kd amounted to 18.4 nM, the koff turned out to be 0.00612 s⁻¹ and the kon came out at 332000 M⁻¹ s⁻¹.

B16: M0124-H10 (Fab, V domains shown)
VH: EVQLLESGGGLVQPGGSLRLSCAASGFTFSNYFMNWVRQAPGKGLEWVSSIGSSGGYTRYADSVKGRFTISRDNSKNTLYLQMNSLRAEDTAVYYCARVGVWYGMDVWGQGTTVTVSS
VL: DIQMTQSPATLSLSAGERATLSCRASQSVNIDVGWYQQKPGQAPRLLIYDASKRATGIPTRFSGSGSGTDFTLTIANLEPEDFAVYYCQQRARWLTFGGGTRLEIKR
For B16, the dissociation constant (Kd) was 20.3 nM, the koff stood at 0.0012 s⁻¹ and the kon was 59100 M⁻¹ s⁻¹.

B17: M0093-G09 (Fab, V domains shown)
VH: EVQLLESGGGLVQPGGSLRLSCAASGFTFSWYSMTWVRQAPGKGLEWVSSISPSGGATKYADSVKGRFTISRDNSKNTLYLQMNSLRAEDTAVYYCARGGAASLPFDYWGQGTLVTVSS
VL: DIQMTQSPSSLSASVGDRVTITCRASQSISSFLNWYQQKPGKAPKLLLMYAASSLQSGVPSRFSGSGSGTDFTLTISSLQPEDFATYYCQQSYSTPYTFGQGTKLEIKR
For the molecule B17, the Kd is 23 nM, the koff was found to be 0.0105 s⁻¹ and the kon worked out at 458000 M⁻¹ s⁻¹.

B18: M0116-C09 (Fab, V domains shown)
VH: EVQLLESGGGLVQPGGSLRLSCAASGFTFSNYKMHWVRQAPGKGLEWVSSIYPSGGWTVYADSVKGRFTISRDNSKNTLYLQMNSLRAEDTAVYYCATGYSSTWGAFDIWGQGTMVTVSS
VL: AQSALTQPPSVSVSPGQTASITCFGDKLGDKYGSWYQQKPGQSPVLVLYQYWKRPSGIPERFSGSNSGNTATLTINVTQTMDEADYYCQAWDSNTVVFGGGTKLTVLG
For B18, the Kd turned out to be 18.2 nM, the koff turned out to be 0.00947 s⁻¹ and the kon was determined as 520000 M⁻¹ s⁻¹.
